Measurements published in the Immune Epitope Database (IEDB).

Key:
[1] = biological target: HLA-C*05:01; test: IEDB peptide-MHC binding, purified MHC/direct/fluorescence; filed as Kd, often an IC50 or EC50 that approximates it; ≥ and ≤ were set here for values at or beyond the usual limits of such assays; details: source organism: Clostridium novyi NT
[2] = biological target: HLA-C*03:03; test: as above; details: source organism: Clostridium novyi NT
[3] = biological target: HLA-B*27:20; test: IEDB peptide-MHC binding, purified MHC/competitive/fluorescence; filed as Kd, often an IC50 or EC50 that approximates it; ≥ and ≤ were set here for values at or beyond the usual limits of such assays
[4] = biological target: HLA-C*14:02; test: as above; details: source organism: Clostridium novyi NT
[5] = biological target: HLA-A*32:07; test: as above
[6] = biological target: HLA-B*46:01; test: as above; details: source organism: Clostridium novyi NT
[7] = biological target: HLA-A*32:15; test: as above
[8] = biological target: HLA-C*06:02; test: as above; details: source organism: Clostridium novyi NT
[9] = biological target: HLA-A*68:23; test: as above
[10] = biological target: HLA-B*83:01; test: as above
[11] = biological target: HLA-B*45:06; test: as above
[12] = biological target: HLA-B*15:42; test: as above
[13] = biological target: HLA-B*73:01; test: IEDB peptide-MHC binding, purified MHC/direct/fluorescence; filed as Kd, often an IC50 or EC50 that approximates it; ≥ and ≤ were set here for values at or beyond the usual limits of such assays
[14] = biological target: HLA-A*03:01; test: as above
[15] = biological target: HLA-B*58:01; test: as above; details: source organism: Cryptosporidium parvum
[16] = biological target: HLA-A*01:01; test: as above; details: source organism: Cryptosporidium parvum
[17] = biological target: HLA-A*30:01; test: as above; details: source organism: Cryptosporidium parvum
[18] = biological target: HLA-A*11:01; test: as above; details: source organism: Cryptosporidium parvum
[19] = biological target: HLA-B*07:02; test: as above; details: source organism: Cryptosporidium parvum
[20] = biological target: HLA-A*26:01; test: as above
[21] = biological target: HLA-A*31:01; test: as above; details: source organism: Cryptosporidium parvum
[22] = biological target: HLA-A*02:01; test: as above
[23] = biological target: HLA-B*15:01; test: as above
[24] = biological target: HLA-B*27:05; test: as above; details: source organism: Cryptosporidium parvum
[25] = biological target: HLA-B*08:01; test: as above; details: source organism: Cryptosporidium parvum
[26] = biological target: HLA-A*69:01; test: as above; details: source organism: Cryptosporidium parvum
[27] = biological target: HLA-B*40:01; test: as above; details: source organism: Cryptosporidium parvum
[28] = biological target: HLA-B*44:02; test: as above; details: source organism: Cryptosporidium parvum
[29] = biological target: HLA-B*51:01; test: as above
[30] = biological target: HLA-B*15:17; test: as above
[31] = biological target: HLA-B*57:01; test: as above
[32] = biological target: HLA-B*46:01; test: as above
[33] = biological target: HLA-A*02:12; test: as above
[34] = biological target: HLA-B*27:03; test: as above
[35] = biological target: HLA-A*02:06; test: as above; details: source organism: Cryptosporidium parvum Iowa II
[36] = biological target: HLA-C*14:02; test: as above; details: source organism: human gammaherpesvirus 4
[37] = biological target: HLA-C*07:02; test: as above; details: source organism: human gammaherpesvirus 4
[38] = biological target: HLA-C*15:02; test: as above; details: source organism: human gammaherpesvirus 4
[39] = biological target: HLA-C*04:01; test: IEDB peptide-MHC binding, purified MHC/competitive/fluorescence; filed as Kd, often an IC50 or EC50 that approximates it; ≥ and ≤ were set here for values at or beyond the usual limits of such assays; details: source organism: Mycobacterium tuberculosis CDC1551
[40] = biological target: HLA-A*02:11; test: IEDB peptide-MHC binding, purified MHC/direct/fluorescence; filed as Kd, often an IC50 or EC50 that approximates it; ≥ and ≤ were set here for values at or beyond the usual limits of such assays; details: source organism: Bacillus cereus H3081.97
[41] = biological target: HLA-A*02:03; test: as above; details: source organism: Bacillus cereus H3081.97
[42] = biological target: HLA-B*18:01; test: as above; details: source organism: Bacillus cereus H3081.97
[43] = biological target: HLA-A*29:02; test: as above; details: source organism: Bacillus cereus H3081.97
[44] = biological target: HLA-A*02:19; test: as above; details: source organism: Bacillus cereus H3081.97
[45] = biological target: HLA-A*02:16; test: as above; details: source organism: Bacillus cereus H3081.97
[46] = biological target: HLA-B*39:01; test: as above; details: source organism: Bacillus cereus H3081.97
[47] = source organism: Clostridium novyi NT
[48] = source organism: Cryptosporidium parvum
[49] = source organism: Cryptosporidium parvum Iowa II
[50] = source organism: human gammaherpesvirus 4
[51] = source organism: Mycobacterium tuberculosis CDC1551
[52] = source organism: Bacillus cereus H3081.97

ASMDNTSPM was tested, and the Kd [1] was at least 20 µM, the Kd [2] was at most 0.001 µM and the Kd [3, 47] was 0.239 µM. The Kd [4] was 0.0364 µM, the Kd [5, 47] was 0.0269 µM and the Kd [6] was 0.0086 µM. The Kd [7, 47] was 0.223 µM, the Kd [8] was 0.57 µM and the Kd [9, 47] was 0.0297 µM. It also gave a Kd [10, 47] of 0.147 µM, a Kd [11, 47] of at least 5 µM and a Kd [12, 47] of at least 5 µM.

FQANMFLTL gave a Kd ([13]; source organism: Bacillus anthracis) of at least 20 µM.

KHNSAESAK was tested, and the Kd [14, 48] was 12.3 µM, the Kd [15] was at least 20 µM and the Kd [16] was at least 20 µM. The Kd [17] was 11.9 µM, the Kd [18] was at least 20 µM and the Kd [13, 49] was at least 20 µM. It also gave a Kd [19] of at least 20 µM, a Kd [20, 48] of at least 20 µM and a Kd [21] of at least 20 µM. It also gave a Kd [22, 48] of at least 20 µM, a Kd [23, 48] of at least 20 µM and a Kd [24] of at least 20 µM. It also gave a Kd [25] of at least 20 µM, a Kd [26] of at least 20 µM and a Kd [27] of at least 20 µM. It also gave a Kd [28] of at least 20 µM.

Sequence KQMSQPYAV has a Kd [29, 49] of at least 20 µM, a Kd [30, 49] of at least 20 µM and a Kd [14, 49] of at least 20 µM. It also gave a Kd [31, 49] of at least 20 µM, a Kd [32, 49] of at least 20 µM and a Kd [20, 49] of at least 20 µM. It also gave a Kd [33, 49] of at most 0.001 µM, a Kd [22, 49] of 0.002 µM and a Kd [34, 49] of at least 20 µM. It also gave a Kd [35] of at most 0.001 µM.

Work on MMAKSNSPF yielded a Kd [36] of 0.008 µM, a Kd [37] of 3.16 µM and a Kd [38] of at least 20 µM. The Kd [3, 50] was 0.0487 µM, the Kd [5, 50] was 0.1 µM and the Kd [7, 50] was 0.0428 µM. For the same sequence, the Kd [9, 50] was 0.0431 µM, the Kd [10, 50] was at least 5 µM and the Kd [11, 50] was at least 5 µM. It also gave a Kd [12, 50] of at least 5 µM.

RPREATIIY gave a Kd [39] of at least 5 µM, a Kd [10, 51] of at least 5 µM and a Kd [11, 51] of at least 5 µM. For the same sequence, the Kd [12, 51] was at least 5 µM.

Work on YSTVRDLFL yielded a Kd [29, 52] of at least 20 µM, a Kd [30, 52] of at most 0.001 µM and a Kd [14, 52] of at least 20 µM. For the same sequence, the Kd [31, 52] was at least 20 µM, the Kd [40] was at least 20 µM and the Kd [41] was at least 20 µM. For the same sequence, the Kd [42] was at least 20 µM, the Kd [32, 52] was at least 20 µM and the Kd [20, 52] was at least 20 µM. The Kd [33, 52] was at least 20 µM, the Kd [22, 52] was at least 20 µM and the Kd [23, 52] was at least 20 µM. The Kd [43] was at least 20 µM, the Kd [44] was at least 20 µM and the Kd [34, 52] was at least 20 µM. The Kd [45] was at least 20 µM and the Kd [46] was at least 20 µM.
